Measurements taken from US20250277026A1 (NOVAROCK BIOTHERAPEUTICS, published 2025).
Positions count from the first letter of the chain named. In names and notes the source's numbering stands. Each block holds one binder with its values, some of them ahead of it.

Columns and labels:
human Claudin-6 [1] = molecular target: T1, human Claudin-6 (human, UniProt P56747 1-220); test: cell-based or functional assay
T1 sequence: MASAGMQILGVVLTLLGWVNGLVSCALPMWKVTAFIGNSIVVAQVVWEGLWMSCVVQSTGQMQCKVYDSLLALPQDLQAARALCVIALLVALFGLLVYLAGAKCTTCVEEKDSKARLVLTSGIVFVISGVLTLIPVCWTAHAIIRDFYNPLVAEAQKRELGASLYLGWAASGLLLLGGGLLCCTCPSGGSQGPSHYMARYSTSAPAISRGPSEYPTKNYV

human Claudin-6 [2] = molecular target: T1, human Claudin-6; test: cell-based or functional assay; remark: listed apart in the source
human Claudin-6 [3] = molecular target: T1, human Claudin-6; test: FACS, NEC8 cells (endogenous CLDN6)
Procedure: (§1) Cells were fixed with 2% PFA (Alfa Aesar, catalog number: J61899) for 15 minutes at 4° C. and then washed. […] Flow cytometric analyses were performed on a flow cytometry instrument (Intellicyte, IQue plus, Sartorius).

human Claudin-6 [4] = molecular target: T1, human Claudin-6; test: FACS, Claudin-6-HEK293 cells, 5 µg/ml
human Claudin-6 [5] = molecular target: T1, human Claudin-6; test: FACS dose response, Claudin-6-CHO-K1 cells
Procedure: (§2) The anti-CLDN6 antibodies were also evaluated for their binding affinity to Claudin-6 overexpressing cell lines by FACS.

human Claudin-6 [6] = molecular target: T1, human Claudin-6; test: FACS dose response, Claudin-6-HEK293 cells
Procedure: as §2

human Claudin-6 [7] = molecular target: T1, human Claudin-6; test: FACS dose response, NEC8 cells (endogenous CLDN6)
Procedure: as §1, §2

human Claudin-3 [8] = molecular target: T2, human Claudin-3 (human, UniProt O15551 1-220); test: FACS, Claudin-3-CHO-K1 cells, serial dilution, MFI
T2 construct: On transfected CHO-K1 cells, or endogenous on MCF7 cells; also called CLDN3
T2 sequence: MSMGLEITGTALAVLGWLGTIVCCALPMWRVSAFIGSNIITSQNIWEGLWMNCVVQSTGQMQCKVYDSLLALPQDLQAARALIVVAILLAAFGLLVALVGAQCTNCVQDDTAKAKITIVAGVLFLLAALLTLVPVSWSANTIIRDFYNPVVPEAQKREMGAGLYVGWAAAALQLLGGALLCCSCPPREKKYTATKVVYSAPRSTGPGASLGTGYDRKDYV
Procedure: (§3) Briefly, Claudin-6-CHO-K1 cells verse parental CHO-K1 cells were incubated with anti-CLDN6 antibodies for 2 hours at 4° C. Cells were fixed with 2% PFA (Alfa Aesar, cat #: J61899) for 15 minutes at 4° C. and then washed. […] Flow cytometric analyses were performed on a flow cytometry instrument (Intellicyte, IQue plus, Sartorius).

human Claudin-4 [9] = molecular target: T3, human Claudin-4 (human, UniProt O14493 1-209); test: FACS, Claudin-4-CHO-K1 cells, serial dilution, MFI
T3 construct: On transfected CHO-K1 cells, or endogenous on MCF7 cells; also called CLDN4
T3 sequence: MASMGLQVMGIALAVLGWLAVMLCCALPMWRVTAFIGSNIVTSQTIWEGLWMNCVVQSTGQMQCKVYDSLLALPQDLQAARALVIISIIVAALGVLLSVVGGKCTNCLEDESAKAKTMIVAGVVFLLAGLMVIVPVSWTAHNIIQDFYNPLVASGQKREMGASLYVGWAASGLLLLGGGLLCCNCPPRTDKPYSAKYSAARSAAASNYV
Procedure: as §3

human Claudin-3 [10] = molecular target: T2, human Claudin-3; test: FACS, Claudin-3-CHO-K1 cells, serial dilution, MFI; remark: listed apart in the source
Procedure: as §3

human Claudin-4 [11] = molecular target: T3, human Claudin-4; test: FACS, Claudin-4-CHO-K1 cells, serial dilution, MFI; remark: listed apart in the source
Procedure: as §3

human Claudin-3 [12] = molecular target: T2, human Claudin-3; test: FACS, Claudin-3-CHO-K1 cells, serial dilution, MFI; remark: listed apart in the source
Procedure: as §3

human Claudin-6 [13] = molecular target: T1, human Claudin-6; test: cell-based or functional assay; remark: listed apart in the source
human Claudin-6 [14] = molecular target: T1, human Claudin-6; test: cell-based or functional assay; remark: listed apart in the source
human Claudin-6 [15] = molecular target: T1, human Claudin-6; test: FACS, NEC8 cells (endogenous CLDN6); remark: listed apart in the source
Procedure: as §1

human Claudin-6 [16] = molecular target: T1, human Claudin-6; test: FACS, OV90 cells (endogenous CLDN6)
Procedure: as §1

human Claudin-6 [17] = molecular target: T1, human Claudin-6; test: FACS, Claudin-6-CHO-K1 cells, 5 µg/ml
Procedure: as §3

human Claudin-9 [18] = molecular target: T4, human Claudin-9 (human, UniProt O95484 1-217); test: FACS, Claudin-9-HEK293 cells, 5 µg/ml
T4 construct: On transfected HEK293 cells; also called CLDN9
T4 sequence: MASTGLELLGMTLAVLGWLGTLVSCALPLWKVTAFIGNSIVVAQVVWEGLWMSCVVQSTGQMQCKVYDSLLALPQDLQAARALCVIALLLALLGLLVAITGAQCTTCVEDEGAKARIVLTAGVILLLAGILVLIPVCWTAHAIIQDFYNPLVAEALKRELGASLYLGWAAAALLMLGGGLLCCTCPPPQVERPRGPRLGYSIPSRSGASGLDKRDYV
Procedure: (§4) The binding specificity of the disclosed anti-Claudin-6 antibodies were further assessed for binding to Claudin-9 by FACS. Briefly, Claudin-9-HEK293 cells (GenScript, Item #U3288DL180_4) were incubated with recombinant Claudin-6 antibodies for 2 hours at 4° C. Cells were fixed with 2% PFA (Alfa Aesar, cat #: J61899) for 15 minutes at 4° C. and then washed. […] Flow cytometric analyses were performed on a flow cytometry instrument (Intellicyte, IQue plus, Sartorius).

human Claudin-6 [19] = molecular target: T1, human Claudin-6; test: FACS dose response, Claudin-6-CHO cells
Procedure: as §3

human Claudin-6 [20] = molecular target: T1, human Claudin-6; test: FACS dose response, Claudin-6-HEK293 cells; remark: listed apart in the source
human Claudin-9 [21] = molecular target: T4, human Claudin-9; test: FACS dose response, Claudin-9-HEK293 cells
Procedure: as §4

human Claudin-6 [22] = molecular target: T1, human Claudin-6; test: FACS dose response, Claudin-6-HEK293 cells; remark: listed apart in the source
human Claudin-4 [23] = molecular target: T3, human Claudin-4; test: FACS on Claudin-4-CHO-K1 cells, MFI
Procedure: as §3

human Claudin-6 [24] = molecular target: T1, human Claudin-6; test: FACS dose response, NEC8 cells (endogenous CLDN6); remark: listed apart in the source
human Claudin-6 [25] = molecular target: T1, human Claudin-6; test: FACS, NEC8 cells (endogenous CLDN6), recombinant antibody
human Claudin-4 [26] = molecular target: T3, human Claudin-4; test: FACS on Claudin-4-CHO-K1 cells, MFI relative to the isotype control
Procedure: as §3

human Claudin-4 [27] = molecular target: T3, human Claudin-4; test: FACS on MCF7 cells, which endogenously express Claudin-3 and Claudin-4; MFI relative to the isotype control
human Claudin-4 [28] = molecular target: T3, human Claudin-4; test: FACS on Claudin-4-CHO-K1 cells, MFI; remark: listed apart in the source
Procedure: as §3

human Claudin-3 [29] = molecular target: T2, human Claudin-3; test: FACS on Claudin-3-CHO-K1 cells, MFI relative to the isotype control
Procedure: as §3

human Claudin-4 [30] = molecular target: T3, human Claudin-4; test: FACS on Claudin-4-CHO-K1 cells, MFI relative to the isotype control; remark: listed apart in the source
Procedure: as §3

human Claudin-3 [31] = molecular target: T2, human Claudin-3; test: FACS on MCF7 cells, which endogenously express Claudin-3 and Claudin-4, MFI
human Claudin-4 [32] = molecular target: T3, human Claudin-4; test: FACS on MCF7 cells, which endogenously express Claudin-3 and Claudin-4; MFI relative to the isotype control; remark: listed apart in the source
human Claudin-3 [33] = molecular target: T2, human Claudin-3; test: as above

ADCC reporter assay on NEC8 cells, EC50 (human Claudin-6 [1]): 9.83 nM
fold MFI over isotype control (human Claudin-6 [3]): 19 fold
fold MFI over isotype control (human Claudin-6 [4]): 23 fold
EC50 (human Claudin-6 [5]): 4.79 nM
EC50 (human Claudin-6 [6]): 15.7 nM
EC50 (human Claudin-6 [7]): 8.34 nM
B1: NR.N6.Ab4 (antibody, V domains shown)
VH: QVQLVESGGGVVQPGRSLRLSCAASGFIFSSYGMHWVRQAPGKGLEWVAVIWYDGSNKFYADSVKGRFTISRDNSRKTLYLQMNSLRAEDTAVYYCARDGRYFDWGGSYYYYYGMDVWGQGTTVTVSS
VL: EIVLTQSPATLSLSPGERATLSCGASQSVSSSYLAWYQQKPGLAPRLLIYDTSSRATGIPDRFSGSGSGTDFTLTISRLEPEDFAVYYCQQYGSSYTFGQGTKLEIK
endocytosis killing (anti-hFc Fab-MMAF, CellTiter-Glo, 72 h) on NEC8 cells, EC50 (human Claudin-6 [2]): 0.41 nM
binding result (human Claudin-3 [8]): no binding (tested: log 1.5 (about 33 nM))
binding result (human Claudin-4 [9]): no binding (tested: log 1.5 (about 33 nM))

ADCC reporter assay on NEC8 cells, EC50 (human Claudin-6 [1]): 3.78 nM
fold MFI over isotype control (human Claudin-6 [3]): 21 fold
fold MFI over isotype control (human Claudin-6 [4]): 24 fold
EC50 (human Claudin-6 [5]): 3.99 nM
EC50 (human Claudin-6 [6]): 4.13 nM
EC50 (human Claudin-6 [7]): 5.92 nM
B2: NR.N6.Ab5 (antibody, V domains shown)
VH: B1 VH with V11A, V50I, Y53F, S56R, F59N, R76K, Q82E, N84S
VL: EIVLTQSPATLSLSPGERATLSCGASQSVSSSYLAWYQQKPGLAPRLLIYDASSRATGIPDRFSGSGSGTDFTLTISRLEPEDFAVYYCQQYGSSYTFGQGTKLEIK
notes: LCDR 41, 45, 43); also called NR.4.N6.Ab5
endocytosis killing (anti-hFc Fab-MMAF, CellTiter-Glo, 72 h) on NEC8 cells, EC50 (human Claudin-6 [2]): 0.26 nM
binding result (human Claudin-3 [10]): no binding (tested: log 1.5 (about 33 nM))
binding result (human Claudin-4 [11]): no binding (tested: log 1.5 (about 33 nM))

ADCC reporter assay on NEC8 cells, EC50 (human Claudin-6 [1]): 6.43 nM
fold MFI over isotype control (human Claudin-6 [3]): 20 fold
fold MFI over isotype control (human Claudin-6 [4]): 31 fold
EC50 (human Claudin-6 [5]): 4.69 nM
EC50 (human Claudin-6 [6]): 5.17 nM
EC50 (human Claudin-6 [7]): 3.27 nM
B3: NR.N6.Ab3 (antibody, V domains shown)
VH: QVQLVESGGGVVQPGRSLRLSCAASGFTFSGYGMHWVRQAPGKGLEWVAAIWYDGSNKYYADSVKGRFTISSDNSKNTLYLQMKSLRAEDTAVYYCAREWYSSGWSMYDVFDIWGQGTMVTVSS
VL: QTVVTQEPSFSVSPGGTVTLTCGLSSGSVSTSYYPSWYQQTPGQAPRTLIYSTNTRSSGVPDRFSGSILGNKAALTITGAQADDESDYYCVLYMGSGIWVFGGGTKLTVL
endocytosis killing (anti-hFc Fab-MMAF, CellTiter-Glo, 72 h) on NEC8 cells, EC50 (human Claudin-6 [2]): 0.51 nM
binding result (human Claudin-3 [12]): no binding (tested: log 1.5 (about 33 nM))

ADCC reporter assay on NEC8 cells, EC50 (human Claudin-6 [1]): 0.4 nM
fold MFI over isotype control (human Claudin-6 [15]): 27 fold
fold MFI over isotype control (human Claudin-6 [16]): 19 fold
fold MFI over isotype control (human Claudin-6 [17]): 28 fold
fold MFI over isotype control (human Claudin-9 [18]): 16 fold
EC50 (human Claudin-6 [19]): 0.97 nM
EC50 (human Claudin-6 [20]): 0.55 nM
EC50 (human Claudin-9 [21]): 6.72 nM
EC50 (human Claudin-6 [22]): 0.63 nM
binding result (human Claudin-4 [23]): no binding
EC50 (human Claudin-6 [24]): 1.39 nM
fold MFI over isotype control (human Claudin-6 [25]): 32 fold
fold MFI over isotype control (human Claudin-4 [26]): 1.1 x
fold MFI over isotype control (human Claudin-4 [27]): 0.9 x
B4: NR.N6.Ab1 (antibody, human IgG1, V domains shown)
VH: QVQLVQSGAEVKKPGASVKVSCKASGNTFTSYDINWVRQATGQGLEWMGWMNPNSGNTGYAQKFQGRVTMTRNTSISTAYMELSSLRSEDTAVYYCVYYNYVWGSFRFDDWGQGTLVTVSS
VL: DIQLTQSPSFLSASVGDRVTITCRASQGISSYLAWYQQKPGKAPKLLIYAASTLQSGVPSRFSGSGSGTEFTLAVSSLQPEDFATYYCQQLNSYPYTFGQGTKLEIK
notes: Human variable domains from Trianni mice; also called NR.NR6.Ab1
endocytosis-mediated cytotoxicity (anti-hFc Fab-MMAF, CellTiter-Glo) on NEC8 cells, EC50 mean (St. Dev. 0.11) (human Claudin-6 [13]): 0.2 nM
endocytosis-mediated cytotoxicity on OV90 cells, EC50 (human Claudin-6 [14]): 1.08 nM
endocytosis killing (anti-hFc Fab-MMAF, CellTiter-Glo, 72 h) on NEC8 cells, EC50 (human Claudin-6 [2]): 0.14 nM

EC50 (human Claudin-6 [22]): 0.42 nM
EC50 (human Claudin-6 [24]): 0.74 nM
B5: NR.N6.Ab1 variant N73D (antibody, V domains shown)
VH: B4 VH with N73D
VL: B4 VL
notes: the LALA changes of the constant region are explained nowhere; also called NR.N6.Ab1N73D; NR.N6.Ab1 N73D

fold MFI over isotype control (human Claudin-6 [15]): 25 fold
fold MFI over isotype control (human Claudin-6 [16]): 17 fold
fold MFI over isotype control (human Claudin-6 [17]): 24 fold
fold MFI over isotype control (human Claudin-9 [18]): 53 fold
EC50 (human Claudin-6 [19]): 6.88 nM
EC50 (human Claudin-6 [20]): 1 nM
EC50 (human Claudin-9 [21]): 1.49 nM
binding result (human Claudin-4 [28]): no binding
fold MFI over isotype control (human Claudin-3 [29]): 0.8 x
fold MFI over isotype control (human Claudin-4 [30]): 0.9 x
binding result (human Claudin-3 [31]): no binding
fold MFI over isotype control (human Claudin-4 [32]): 1.1 x
fold MFI over isotype control (human Claudin-3 [33]): 1.1 x
B6: NR.N6.Ab2 (antibody, V domains shown)
VH: QVQLVESGGGVVQPGRSLRLSCTASGFTFSHYGMHWVRQAPGKGLEWVSFLWFDGSKDNYADSVKGRFTISRDNSKNMLYLRMDSLRAEDTAVYYCARNGGLTIFDYWGQGTLVTVSS
VL: AIQLTQSPSSLSASVGDRVTITCRASQGINSWLAWYQQKPEKAPKSLIYAASSLQSGVPSRFSGSGSGTDFTLTISSLQPEDFATYYCQQYNFYPYTFGQGTKLEII
notes: hybridoma-purified antibody in the Claudin-3-CHO-K1, Claudin-4-CHO-K1 and MCF7 assays
endocytosis-mediated cytotoxicity (anti-hFc Fab-MMAF, CellTiter-Glo) on NEC8 cells, EC50 mean (St. Dev. 0.07) (human Claudin-6 [13]): 0.1 nM
endocytosis-mediated cytotoxicity on OV90 cells, EC50 (human Claudin-6 [14]): 2.32 nM
